Source: patent publication US20230143604A1, “QW DOSING OF GIP RECEPTOR AGONIST PEPTIDE COMPOUNDS AND USES THEREOF” (TAKEDA PHARMACEUTICAL COMPANY LIMITED, priority 2020, published 2023)
Starred links: 1 amine or outer side, 2 acyl side, 3 side chain; linkers in the order of their positions; H or OH if unused. Non-standard residues stand in square brackets, D forms with d. Groups on a side chain read outwards from the residue. No end group written: not given here. *: point of attachment. C20 diacid = O=C(O)CCCCCCCCCCCCCCCCCCC(=O)*; C18 diacid = O=C(O)CCCCCCCCCCCCCCCCC(=O)*; C17 diacid = O=C(O)CCCCCCCCCCCCCCCC(=O)*; γGlu = O=C(O)[C@H](CCC(=O)[*:2])N[*:1]; NMeY = CN[C@@H](Cc1ccc(O)cc1)C(=O)O; AEEA = NCCOCCOCC(=O)O; Aib = CC(C)(N)C(=O)O

T1: full-length human GIPR with an N-terminal FLAG tag (human, UniProt P48546 22-466)
T1 sequence (looked up): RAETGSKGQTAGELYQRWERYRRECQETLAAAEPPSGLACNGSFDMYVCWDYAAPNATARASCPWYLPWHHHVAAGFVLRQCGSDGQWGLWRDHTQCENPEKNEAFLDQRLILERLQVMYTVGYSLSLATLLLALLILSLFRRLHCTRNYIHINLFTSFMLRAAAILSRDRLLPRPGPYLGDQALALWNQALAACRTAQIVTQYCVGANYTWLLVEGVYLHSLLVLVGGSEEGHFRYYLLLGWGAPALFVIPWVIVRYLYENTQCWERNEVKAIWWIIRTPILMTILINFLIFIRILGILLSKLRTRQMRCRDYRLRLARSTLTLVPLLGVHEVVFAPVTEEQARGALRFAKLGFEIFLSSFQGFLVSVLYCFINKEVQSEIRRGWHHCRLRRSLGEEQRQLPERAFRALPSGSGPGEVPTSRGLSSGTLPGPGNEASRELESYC

B1: Compound No. 10 (peptide)
peptide: [NMeY][Aib]EGTFISDYSIAK([AEEA-AEEA-γGlu-C17 diacid])DR[Aib]AQ[Aib]NFVNWLLAQS-OH
modifications: N-terminus assumed
SMILES: CC[C@H](C)[C@H](NC(=O)[C@H](CO)NC(=O)[C@H](Cc1ccc(O)cc1)NC(=O)[C@H](CC(=O)O)NC(=O)[C@H](CO)NC(=O)[C@@H](NC(=O)[C@H](Cc1ccccc1)NC(=O)[C@@H](NC(=O)CNC(=O)[C@H](CCC(=O)O)NC(=O)C(C)(C)NC(=O)[C@H](Cc1ccc(O)cc1)NC)[C@@H](C)O)[C@@H](C)CC)C(=O)N[C@@H](C)C(=O)N[C@@H](CCCCNC(=O)COCCOCCNC(=O)COCCOCCNC(=O)CC[C@H](NC(=O)CCCCCCCCCCCCCCCC(=O)O)C(=O)O)C(=O)N[C@@H](CC(=O)O)C(=O)N[C@@H](CCCNC(=N)N)C(=O)NC(C)(C)C(=O)N[C@@H](C)C(=O)N[C@@H](CCC(N)=O)C(=O)NC(C)(C)C(=O)N[C@@H](CC(N)=O)C(=O)N[C@@H](Cc1ccccc1)C(=O)N[C@H](C(=O)N[C@@H](CC(N)=O)C(=O)N[C@@H](Cc1c[nH]c2ccccc12)C(=O)N[C@@H](CC(C)C)C(=O)N[C@@H](CC(C)C)C(=O)N[C@@H](C)C(=O)N[C@@H](CCC(N)=O)C(=O)N[C@@H](CO)C(=O)O)C(C)C

molecular target: T1, full-length human GIPR with an …; assay: cell-based or functional assay

Binder	Human GIPR cAMP EC50, HEK293T
[NMeY][Aib]EGTFISDYSI[Aib]LDR[Aib]AA[Aib]K([AEEA-AEEA-γGlu-γGlu-C18 diacid])FVNWLLAQRPSSGAPPPS-NH2 [Compound No. 106]	0.0004 nM
[NMeY][Aib]EGTFISDYSI[Aib]LDR[Aib]K([AEEA-AEEA-γGlu-γGlu-C18 diacid])A[Aib]NFVNWLLAQSPSSGAPPPS-NH2 [Compound No. 109]	0.0004 nM
YXEGTFISDYSIXXDRXAQXDFVEWLLAQRG (N-methyl Tyr 1; Aib at 2,13,17,20; Lys(G5-C18 diacid) at 14; C-terminal OH) [Compound No. 108]	0.0002 nM
[NMeY][Aib]EGTFISDYSI[Aib]LDR[Aib]AQ[Aib]K([AEEA-γGlu-AEEA-γGlu-C18 diacid])FVNWLLAQSPSSGAPPPS-NH2 [Compound No. 92]	0.0006 nM
B1	0.0002 nM
[NMeY][Aib]EGTFISDYSIALDR[Aib]K([AEEA-AEEA-γGlu-γGlu-C20 diacid])Q[Aib]NFVNWLLAQSPSSGAPPPS-NH2 [Compound No. 99]	0.0005 nM
[NMeY][Aib]EGTFISDYSIALDR[Aib]K([GGPAPAP-C18 diacid])Q[Aib]DFVNWLLAQSPSSGAPPPS-OH [Compound No. 102]	0.0005 nM
[NMeY][Aib]EGTFISDYSI[Aib]LDR[Aib]AQ[Aib]K([AEEA-AEEA-γGlu-γGlu-C17 diacid])FVNWLLAQSPSSGAPPPS-NH2 [Compound No. 94]	0.0006 nM
[NMeY][Aib]EGTFISDYSI[Aib]LDR[Aib]K([AEEA-AEEA-γGlu-γGlu-C18 diacid])Q[Aib]NFVNWLLAQSPSSGAPPPS-NH2 [Compound No. 100]	0.0006 nM
[NMeY][Aib]EGTFISDYSI[Aib]LDR[Aib]AQ[Aib]K([AEEA-AEEA-γGlu-γGlu-C20 diacid])FVNWLLAQRPSSGAPPPS-NH2 [Compound No. 101]	0.0009 nM
[NMeY][Aib]EGTFISDYSIALDR[Aib]AQ[Aib]K([GGPAPAP-C18 diacid])FVNWLLAQSPSSGAPPPS-OH [Compound No. 103]	0.0017 nM
[NMeY][Aib]EGTFISDYSI[Aib]LDR[Aib]AQ[Aib]K([AEEA-AEEA-γGlu-C18 diacid])FVNWLLAQSPSSGAPPPS-NH2 [Compound No. 91]	0.0005 nM
[NMeY][Aib]EGTFISDYSI[Aib]LDR[Aib]AQ[Aib]K([2OEGgEgE-C18 diacid])FVNWLLAQSPSSGAPPPS-NH2 [Compound No. 90]	0.0005 nM
[NMeY][Aib]EGTFISDYSI[Aib]LDR[Aib]AQ[Aib]K([AEEA-γGlu-γGlu-C18 diacid])FVNWLLAQSPSSGAPPPS-NH2 [Compound No. 93]	0.0006 nM
[NMeY][Aib]EGTFISDYSIAK([GGPAPAP-C18 diacid])DR[Aib]AQ[Aib]DFVNWLLAQSPSSGAPPPS-OH [Compound No. 105]	0.0005 nM
[NMeY][Aib]EGTFISDYSIALDR[Aib]AQ[Aib]K([AEEA-AEEA-γGlu-γGlu-C18 diacid])FVNWLLAQSPSSGAPPPS-NH2 [Compound No. 97]	0.0006 nM
YXEGTFISDYSIXXDRXAQXNFVNWLLAQSPSSGAPPPS (N-methyl Tyr 1; Aib at 2,13,17,20; Lys(G5-C17 diacid) at 14; C-terminal OH) [Compound No. 95]	0.0004 nM
YXEGTFISDYSIXXDRXAQXNFVNWLLAQSPSSGAPPPS (N-methyl Tyr 1; Aib at 2,13,17,20; Lys(G5-C18 diacid) at 14; C-terminal OH) [Compound No. 96]	0.0003 nM
YXEGTFISDYSIXLDRXAQXDFVNWLLAQSPG (N-methyl Tyr 1; Aib at 2,13,20; Lys(G5-C18 diacid) at 17; C-terminal OH) [Compound No. 88]	0.0004 nM
[NMeY][Aib]EGTFISDYSI[Aib]LDR[Aib]AQ[Aib]K([2OEGgEgE-C18 diacid])FVNWLLAQRPSSGAPPPS-NH2 [Compound No. 89]	0.0004 nM
[NMeY][Aib]EGTFISDYSI[Aib]LDR[Aib]AA[Aib]K([AEEA-AEEA-γGlu-γGlu-C18 diacid])FVNWLLAQSPSSGAPPPS-NH2 [Compound No. 107]	0.0004 nM
[NMeY][Aib]EGTFISDYSIALDR[Aib]AQ[Aib]K([2OEGgEgE-C17 diacid])FVNWLLAQR-OH [Compound No. 9]	0.0004 nM
[NMeY][Aib]EGTFISDYSI[Aib]LDR[Aib]K([2OEGgEgE-C18 diacid])Q[Aib]DFVNWLLAQSPG-OH [Compound No. 87]	0.0004 nM
[NMeY][Aib]EGTFISDYSIALDR[Aib]AQ[Aib]K([GGPAPAP-γGlu-C18 diacid])FVNWLLAQSPSSGAPPPS-OH [Compound No. 104]	0.0005 nM

molecular target: full-length human GLP-1R with an N-terminal FLAG tag (human, UniProt P43220 24-463); assay: cell-based or functional assay

Binder	Human GLP1R cAMP EC50, HEK293T
[NMeY][Aib]EGTFISDYSI[Aib]LDR[Aib]AA[Aib]K([AEEA-AEEA-γGlu-γGlu-C18 diacid])FVNWLLAQRPSSGAPPPS-NH2 [Compound No. 106]	12 nM
[NMeY][Aib]EGTFISDYSI[Aib]LDR[Aib]K([AEEA-AEEA-γGlu-γGlu-C18 diacid])A[Aib]NFVNWLLAQSPSSGAPPPS-NH2 [Compound No. 109]	204 nM
YXEGTFISDYSIXXDRXAQXDFVEWLLAQRG (N-methyl Tyr 1; Aib at 2,13,17,20; Lys(G5-C18 diacid) at 14; C-terminal OH) [Compound No. 108]	41.7 nM
[NMeY][Aib]EGTFISDYSI[Aib]LDR[Aib]AQ[Aib]K([AEEA-γGlu-AEEA-γGlu-C18 diacid])FVNWLLAQSPSSGAPPPS-NH2 [Compound No. 92]	36.3 nM
B1	37.2 nM
[NMeY][Aib]EGTFISDYSIALDR[Aib]K([AEEA-AEEA-γGlu-γGlu-C20 diacid])Q[Aib]NFVNWLLAQSPSSGAPPPS-NH2 [Compound No. 99]	479 nM
[NMeY][Aib]EGTFISDYSIALDR[Aib]K([GGPAPAP-C18 diacid])Q[Aib]DFVNWLLAQSPSSGAPPPS-OH [Compound No. 102]	117 nM
[NMeY][Aib]EGTFISDYSI[Aib]LDR[Aib]AQ[Aib]K([AEEA-AEEA-γGlu-γGlu-C17 diacid])FVNWLLAQSPSSGAPPPS-NH2 [Compound No. 94]	63.1 nM
[NMeY][Aib]EGTFISDYSI[Aib]LDR[Aib]K([AEEA-AEEA-γGlu-γGlu-C18 diacid])Q[Aib]NFVNWLLAQSPSSGAPPPS-NH2 [Compound No. 100]	> 1000 nM
[NMeY][Aib]EGTFISDYSI[Aib]LDR[Aib]AQ[Aib]K([AEEA-AEEA-γGlu-γGlu-C20 diacid])FVNWLLAQRPSSGAPPPS-NH2 [Compound No. 101]	39.8 nM
[NMeY][Aib]EGTFISDYSIALDR[Aib]AQ[Aib]K([GGPAPAP-C18 diacid])FVNWLLAQSPSSGAPPPS-OH [Compound No. 103]	29.5 nM
[NMeY][Aib]EGTFISDYSI[Aib]LDR[Aib]AQ[Aib]K([AEEA-AEEA-γGlu-C18 diacid])FVNWLLAQSPSSGAPPPS-NH2 [Compound No. 91]	30.9 nM
[NMeY][Aib]EGTFISDYSI[Aib]LDR[Aib]AQ[Aib]K([2OEGgEgE-C18 diacid])FVNWLLAQSPSSGAPPPS-NH2 [Compound No. 90]	72.4 nM
[NMeY][Aib]EGTFISDYSI[Aib]LDR[Aib]AQ[Aib]K([AEEA-γGlu-γGlu-C18 diacid])FVNWLLAQSPSSGAPPPS-NH2 [Compound No. 93]	29.5 nM
[NMeY][Aib]EGTFISDYSIAK([GGPAPAP-C18 diacid])DR[Aib]AQ[Aib]DFVNWLLAQSPSSGAPPPS-OH [Compound No. 105]	562 nM
[NMeY][Aib]EGTFISDYSIALDR[Aib]AQ[Aib]K([AEEA-AEEA-γGlu-γGlu-C18 diacid])FVNWLLAQSPSSGAPPPS-NH2 [Compound No. 97]	52.5 nM
YXEGTFISDYSIXXDRXAQXNFVNWLLAQSPSSGAPPPS (N-methyl Tyr 1; Aib at 2,13,17,20; Lys(G5-C17 diacid) at 14; C-terminal OH) [Compound No. 95]	17.4 nM
YXEGTFISDYSIXXDRXAQXNFVNWLLAQSPSSGAPPPS (N-methyl Tyr 1; Aib at 2,13,17,20; Lys(G5-C18 diacid) at 14; C-terminal OH) [Compound No. 96]	9.55 nM
YXEGTFISDYSIXLDRXAQXDFVNWLLAQSPG (N-methyl Tyr 1; Aib at 2,13,20; Lys(G5-C18 diacid) at 17; C-terminal OH) [Compound No. 88]	13.5 nM
[NMeY][Aib]EGTFISDYSI[Aib]LDR[Aib]AQ[Aib]K([2OEGgEgE-C18 diacid])FVNWLLAQRPSSGAPPPS-NH2 [Compound No. 89]	42.7 nM
[NMeY][Aib]EGTFISDYSI[Aib]LDR[Aib]AA[Aib]K([AEEA-AEEA-γGlu-γGlu-C18 diacid])FVNWLLAQSPSSGAPPPS-NH2 [Compound No. 107]	45.7 nM
[NMeY][Aib]EGTFISDYSIALDR[Aib]AQ[Aib]K([2OEGgEgE-C17 diacid])FVNWLLAQR-OH [Compound No. 9]	7.94 nM
[NMeY][Aib]EGTFISDYSI[Aib]LDR[Aib]K([2OEGgEgE-C18 diacid])Q[Aib]DFVNWLLAQSPG-OH [Compound No. 87]	> 1000 nM
[NMeY][Aib]EGTFISDYSIALDR[Aib]AQ[Aib]K([GGPAPAP-γGlu-C18 diacid])FVNWLLAQSPSSGAPPPS-OH [Compound No. 104]	66.1 nM
